From patent US20220228157A1, “GENE EDITING IN DIVERSE BACTERIA” (priority 2019, published 2022) come the findings set out here.

Data set [1] deals with L. lactis single-stranded binding protein (LlSSB) (L. lactis) (UniProt Q9CDM9). Kind of data set: cell-based or functional assay.
The subject of data set [2] is 90 bp oligos pre-coated with SSB. Kind of data set: Oligonucleotide annealing and quenching in vitro. It counts as biochemical. As to conditions: two 90 bp oligos pre-coated with SSB. An excerpt: It was first whether two 90 bp oligos could anneal if they were pre-coated with SSB. SSBs was purified from E. coli (gram-negative), where most recombineering work has been performed, and L. lactis (gram-positive), a lactic acid bacterium phylogenetically distantly related to E. coli. […] It was next tested capacity of a phage RecT protein to overcome this SSB-mediated inhibition of annealing. Thus, Redβ, which is not broadly portable, but mediates efficient oligonucleotide annealing in E. coli, was purified. […] These preliminary results gave us an indication that while bacterial SSBs inhibit oligonucleotide annealing in vitro, RecTs overcome the inhibitory effect in an SSB-specific manner.
Fluorescent (tolC-r.null.mut-3′FAM) and quenching (tolC-f.null.mut-5′IBFQ) oligos were ordered from Integrated DNA Technologies. Unless otherwise indicated, 50 nM of each oligo was incubated in 25 mM TRIS-HCl pH 7.4 with 1.0 μM Ec_SSB or Ll_SSB at 30° C. for 30 minutes. 100 μl of each oligo mixture were then combined into a 96-well clear-bottom black assay plate (Costar), incubated a further 60 minutes at 30° C., and annealing was tracked on a Synergy H4 microplate reader (BioTek) with fluorescence excitation set to 495 nm and emission set to 520 nm. After 60 minutes, 20 μl of a solution with or without 25 μM Redβ and containing 100 mM MgCl2 was added to achieve a final reaction concentration of 2.5 μM Redβ and 10 mM MgCl2. The annealing was then tracked over 10 hours in a the Synergy H4 microplate reader with the setting indicated above.

Data set [3] has as its system Agrobacterium tumefaciens. Nature of the data set: SSAP candidate enrichment. Format: cell-based. How it is done:
(§1) The editing efficiency of SSAP candidates was also tested in Agrobacterium tumefaciens and in Staphylococcus aureus using the methods described above.

Another data set relates to E. coli. Kind of data set: Allelic recombination frequency, selective vs non-selective plates. Format: cell-based, Escherichia coli. The following applies: RecT alone. How it is done: (§2) Four variants known to enable high genome editing efficiency were selected (Redβ and PapRecT in E. coli, LrpRecT in L. lactis, and MspRecT in M. smegmatis), and tested codon optimized versions of all four in both E. coli (gram-negative), and L. lactis (gram-positive). Genome editing efficiency was measured by introducing oligos encoding known antibiotic resistance mutations, and compared the antibiotic resistant cell counts to the total number of viable cells in the population (FIGS. 17E-17F). […] In L. lactis, LrpRecT was the only functional homolog, and improved oligo incorporation 7,700-fold, while the three other RecT variants were nearly non-functional, improving oligo incorporation less than 7-fold (FIG. 17H). No RecT protein functioned well both in E. coli and L. lactis.
A single colony of E. coli was grown overnight to saturation. In the morning 30 μL of dense culture was inoculated into 3 mL of fresh media and grown for 1 hour. To induce gene expression of the pARC8 vector for recombineering experiments, L-arabinose was added to a final concentration of 0.2% (w/v) and the cells were grown an additional hour. 1 mL of cells were pelleted at 4° C. by centrifugation at 12,000×g for 2.5 minutes and washed twice with 1 mL of ice-cold dH2O. Cells were resuspended in 50 μL ice-cold dH2O containing DNA and transferred to a pre-chilled 0.1 cm electroporation cuvette.
(§3) Electrocompetent cells were electroporated with 90-mer oligos at: 1 uM for E. coli, 50 μg for L. lactis, and 10 uM for C. crescentus. 70-mer oligos were used at 1 μg for M. smegmatis. All oligos were obtained from IDT and can be found under “Oligonucleotides for genome editing” in materials and methods. For dsDNA experiments L. lactis was electroporated with 1.5 μg purified linear dsDNA. Cells were electroporated using a Bio-Rad gene pulser set to 25 μF, 200 S2, and 1.8 kV for E. coli, 2.0 kV for L. lactis, and 1.5 kV for C. crescentus and to 1000Ω and 2.5 kV for M. smegmatis. Immediately after electroporation, cells were recovered in fresh media for 3 hours for E. coli, 1 hour for L. lactis, overnight for M. smegmatis and overnight for C. crescentus. L. lactis recovery media was supplemented with MgCl2 and CaCl2) at a concentration of 20 mM and 2 mM, respectively. E. coli recovery media was supplemented with carbenicillin. M. smegmatis recovery media was supplemented with hygromycin. C. crescentus recovery media was supplemented with 0.3% xylose and kanamycin. After recovery, the cells were serial diluted and plated on non-selective vs. selective agar plates to obtain approximately 50-500 CFU/plate. Colonies were counted using a custom script in Fiji, and allelic recombination frequency was calculated by dividing the number of colonies on selective plates, with the number of colonies on non-selective plates.

A further data set has as its system L. rhamnosus. It counts as cell-based. How it is done: Finally, the model for RecT was used to establish recombineering in L. rhamnosus, a well-studied probiotic used to treat a variety of illnesses including diarrhea and bacterial vaginosis. Although the L. rhamnosus SSB and L. lactis SSB only have 47% identity, they share identical SSB C-terminal tail 7 amino acids. It was determined whether LrpRecT (which functions in L. lactis) is portable to L. rhamnosus, while the other RecT proteins would not be functional.

The next data set deals with Staphylococcus aureus. Nature of the data set: SSAP candidate enrichment. It counts as cell-based. The protocol:
as §1

A further data set relates to L. lactis. Kind of data set: Allelic recombination frequency, selective vs non-selective plates. Format: cell-based, Lactococcus lactis. As to conditions: RecT alone. How it is done:
as §2
A single colony of L. lactis was grown overnight to saturation. 500 μL of dense culture was inoculated into 5 mL of fresh media, supplemented with 500 mM sucrose and 2.5% (w/v) glycine, and grown for 3 hours. To induce gene expression of the pJP005 vector for recombineering experiments, the cells were grown for an additional 30 min after adding 1 ng/mL freshly diluted nisin, unless stated otherwise. For the optimized condition (FIG. 20B), 10 ng/mL nisin was used. Cells were pelleted at 4° C. by centrifugation at 5,000×g for 5 minutes and washed twice with 2 mL of ice-cold electroporation buffer (500 mM sucrose containing 10% (w/v) glycerol) by centrifugation at 13,200×g for 2.5 minutes. Cells were resuspended in 80 μL ice-cold electroporation buffer containing DNA and transferred to a pre-chilled 0.1 cm electroporation cuvette.
as §3

In turn, MspRecT gave a genome editing efficiency in L. lactis (fold lower than the cognate pair) in data set [1] of 33.
As for “EcSSB: single-stranded binding protein from E. coli [reference compound]”, the “Effect of SSB on oligonucleotide annealing” value in data set [2] is listed as “completely inhibited oligonucleotide annealing”.

B1: N003: SSAP candidate (protein, listed as Escherichia coli)
chain: MTKQPPIAKADLQKTQGNRAPAAVKNSDVISFINQPSMKEQLAAALPRHMTAERMIRIATTEIRKVPALGNCDTMSFVSAIVQCSQLGLEPGSALGHAYLLPFGNKNEKSGKKNVQLIIGYRGMIDLARRSGQIASLSARVVREGDEFSFEFGLDEKLIHRPGENEDAPVTHVYAVARLKDGGTQFEVMTRKQIELVRSLSKAGNNGPWVTHWEEMAKKTAIRRLFKYLPVSIEIQRAVSMDEKEPLTIDPADSSVLTGEYSVIDNSEE
Regarding B1, the “Editing efficiency (enrichment) relative to other SSAP candidates” value in data set [3] is listed as “increase in editing efficiency”.

B2: PF071: SSAP candidate (protein)
chain: MALTPGLVTLNHAKIMSNESTDKLDLPQAPVPKKTLYEIVMSEDVKTHITQFVEGMMTPERCISIFWNCCQKTPLLQQCAPITLISSLKNLLLMRCEPDGIHGYLVPFWVNDKRTGNSILTCAPVPSARGLMRMARSNGVTNLNIGIVREGEPFSWRLDDGKFTMGHIPGWGDNEDPIRGFYCTWTDKDSYLHGERMSLKAVEEIKGRSKSKNKKGEIVGPWVTDFGQMGLKTVIKRASKQWDLPLVIQAAMQAADDQEFEGNMRNVTPEKTDGPAEGETPWNNAPAPEAFQNDQPEALPEPKPEGQDDLIPGLKMPAPKETATVNMEDY
modifications: Akkermansia sp KLE1798
notes: SSAP candidate
For B2, in data set [3], the “Editing efficiency (enrichment) relative to other SSAP candidates” value is “increase in editing efficiency”.

B3: MspRecT: RecT variant known to enable high genome editing efficiency in M. smegmatis (protein)
chain: MAENAVTKQDSPKAPETISQVLQVLVPQLARAVPKGMDPDRIARIVQTEIRKSRNAKAAGIAKQSLDDCTQESFAGALLTSAALGLEPGVNGECYLVPYRDTRRGVVECQLIIGYQGIVKLFWQHPRASRIDAQWVGANDEFHYTMGLNPTLKHVKAKGDRGNPVYFYAIVEVTGAEPLWDVFTADEIRELRRGKVGSSGDIKDPQRWMERKTALKQVLKLAPKTTRLDAAIRADDRPGTDLSQSQALALPSTVKPTADYIDGEIAEPHEVDTPPKSSRAQRAQRATAPAPDVQMANPDQLKRLGEIQKAEKYNDADWFKFLADSAGVKATRAADLTFDEAKAVIDMFDGPNA
With B3, the “Improvement of oligo incorporation” value in the data set on E. coli worked out at 290 fold. Further, the “Toxicity in L. rhamnosus” value in the data set on L. rhamnosus was “toxic”.

B4: PF074: SSAP candidate (protein, listed as Rhizobium loti)
chain: MMNAITTYTHSPRQLALIQKTVAKDCNTDEFNLFVEVARAKGLDPFLGQIIPMIFSKGDSNKRKMTIIISRDGQRVIAQRCGDYRPASKPPSYEFDAELKSETNPQGIVSATVYLWKQDAKTAAWFEVAGQSYWDEFAPISYPYDAYKMVDTGETWEDSGKPKKKRVLRDGATPQLDDSGNWCRMPRLMIAKCAEMQALRAGWPEQFTGLYDEAEMDRAKVLEMAASEIVAHEQEENRLRLVAGNDAITMSWGDGWALENVPAGEFMDRCLAFIRESDHQTVVKWNSANRAGLQLFWAKHPGDALELKKAIEKASRAPVEIDHIADAARREIAQHPVSAG
As to B4, the “Editing efficiency (enrichment) relative to other SSAP candidates” value in data set [3] is on record as “increase in editing efficiency”.

B5: PF076: SSAP candidate (protein)
chain: MTGPELAAAAKQTAQQAGSATVKKFFEANRGTLEALLPRHFDSERMLKLALGALRTTPKLANASLSSLLGSVVTCAQLGLEPNTPLGHAYLLPFDKREKQNGQWVTVETQVQVIIGYKGMLDLARRSGQIVSIAAHEVCQNDEFVFAYGLNEELVHRPAMKDRGPVIGFYAVAKLTGGGYSFEFMSVDEVNHIRDKAAEKNRAKRDAAGNPIITGPWADNYVEMGRKTVLRRLFKYLPISIESLAFASAVDGQAIREPAPLEQVAFESSEPAEEPTSYDQQDEDLRALEQSQPARVPPVQVEQPAEAWQPSAEEAAELERQQAAEAAADQQRASAPRGRGQRSMSLE
modifications: Methyloversatilis universalis (strain ATCC BAA-1314 / JCM 13912 /FAM5)
notes: SSAP candidate
For B5, in data set [3], the “Editing efficiency (enrichment) relative to other SSAP candidates” value was “increase in editing efficiency”.

B6: L1SSB: single-stranded binding protein from L. lactis (protein)
chain: MINNVVLVGRITRDPELRYTPQNQAVATFSLAVNRQFKNANGEREADFINCVIWRQQAENLANWAKKGALIGVTGRIQTRNYENQQGQRVYVTEVVADSFQMLESRSARDGMGGGASAGSYSAPSQSTNNTPRPQTNNNSATPNFGRDADPFGSSPMEISDDDLPF
As to B6, the “Effect of SSB on oligonucleotide annealing” value in data set [2] is recorded as “completely inhibited oligonucleotide annealing”.

B7: SR063: SSAP candidate (protein)
chain: MHLIHQSGEVKMQLSPETNEILPALFNARNKFAKAKKDAKNNHLKNSYATLDAMMAAVSPALTDNDIMILQSMLDTSTETTFHLETMLIHKSGQWAKFFMMMPIAKRDPQGVGSAMTYARRYSLAAALGISQSDDDAQLAVKSVKDWKKELDACEDIESLKDVWANAYRQTDTASKSIIQDHYNALKAKFEIGKARGIRPAQPEQKKQVEATSAKPVQSQSITNFE
modifications: Bacteriophage T1
notes: SSAP candidate
Regarding B7, the “Editing efficiency (enrichment) relative to other SSAP candidates” value in the data set with Staphylococcus aureus is listed as “increase in editing efficiency”.

B8: LrpRecT: RecT variant known to enable high genome editing efficiency in L. lactis (protein)
chain: MANQVAQQQKPTKLTDLVLDRVKQMQDTQDLSLPKNYNASNALNAAFLELQKVQDRNHRPALEVCSHDSIVKSLLDMTLQGLSPAKDQCYFIVYGNELQMQRSYFGTVAAVKRLDGVKKVRAEVVHEKDDFEIGANEDMELVVKRFVPKFENQDNQIIGAFAMIKTDEGTDFTVMTKKEIDQSWAQTRQKNNKVQQNFSQEMAKRTVLNRAAKMFINTSDDSDLLTGAINDTTSNEYDDERRDVTPVEDEKQSTDKLLEGFQKSQEAKAKWVSNDGNSNEGKETSEEVADGQTELFSEGTIKPADEADS
In the case of B8, the “Improvement of oligo incorporation” value was 5.6 fold in the data set with E. coli and 7,700 fold with L. lactis. The “Oligonucleotide incorporation” value in the data set on L. rhamnosus (L. rhamnosus) was “three orders of magnitude above the background level”.
